From publication PMC5233953

How the values were obtained:
[1] = molecular target: FrpD_(43-271) protein (Neisseria meningitidis); experiment: SEC; Superdex 200 HR column; free proteins and an equimolar mixture of purified FrpD and FrpC_(1-414)
[2] = molecular target: FrpD_(43-271) protein (Neisseria meningitidis); experiment: cross-linking; FrpD-FrpC_(1-414) complex (1 mg/ml, 14 μM) with a 1:1 mixture of d0/d4 BS2G, 30 min; 70-kDa band digested with trypsin, nano-ESI-FTICR mass spectrometry
[3] = molecular target: FrpD_(43-271) protein (Neisseria meningitidis); experiment: SAXS; beamline X33 EMBL, room temperature; FrpD 1–9 mg/ml, FrpD-FrpC_(1-414) complex 1–5 mg/ml; molecular mass from the Porod volume

Measured: stoichiometry N

B1: FrpC_(1-414), the N-terminal domain of FrpC (domain or fragment)
chain: MNEGEVVLTPEQIQTLRGYASRGDTYGGWRYLANLGDRYADNAAAIVGKDTNLNGLNLWMKKGVENLWDDTVGKKTRLEKFDRVALQHFSQYVDLINKNNGRLPNTSEIERSYYKAVTYHGVSSSAAIDLVINRSLPDMADGYWALGLGIEAERIHNEQAVNNPNGSERDNRKQLISALDKGFDGSFKEKHFTFLQSVMMDLTKLGVEYTIDGWQKIGGWGNGIINDLYKSVVKREWTGIFEIVNNNIKQGNEAFKNEINSLVHDMKAAGKEFGDDLNTQWNNLTQAAEIIYNDIVDNTSQGIEKGVKAIKELSEKMKNAASDLADGSAEKAKQVVEDLAQAAKEAYENAKSTAEKAAQAAREFFKGLPSFKDLAEKFRDLFPNPEGWIDDGHQCFAPWVKETKKRNGKYHVYD
1: all assays above
